B1: TPR t1 (parent)
chain: GACCAAUCUGCCCUCAGAGCUCGAGAACAUCUUCGGAUGCAGAGGAGGCAGGCUUCGGUGGCGCGAUAGCGCCAACGUCCUCAACCUCCAAUGCAUCCCACCACAUGAUGAUGCCUGAAGAGCCUUGGUUUUUUG

The variants in the data set derive from B1. Nature of the data set: polymerase ribozyme fitness, log enrichment relative to wild type (log ratio); higher = more active; in vitro selection for triplet polymerase activity. The method in brief:
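PCR was used to build mutant libraries for each subunit of a heterodimeric triplet polymerase ribozyme, which were then transcribed. A single in vitro selection round, in triplicate, used a frozen incubation at −7 °C and recovered extended constructs by gel excision, streptavidin beads and RT-PCR. Fitness is the logarithm of genotype enrichment relative to wild-type enrichment, averaged over replicates with inverse-variance weights. The logarithm is base 2, and after Illumina sequencing only genotypes with ≥10 input reads and ≥1 read per output were kept.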
In the case of C11G U78C, the “polymerase ribozyme fitness (log ratio)” value stood at 0.168.
C11A A119C C124G: the “polymerase ribozyme fitness (log ratio)” value was -4.46.
The result for G52U U106G reads -3.09; that for C40U C82G, -1.54.
Turning to C70A C73G G120C, the “polymerase ribozyme fitness (log ratio)” value is -5.26.
For C123A U130A, the “polymerase ribozyme fitness (log ratio)” value came to 0.213.
The result for G39C G93A reads -2.3.
Turning to G36U C53U G63A C123G, the “polymerase ribozyme fitness (log ratio)” value was -0.478.
The figure for A29U C73U C98U A111C is -3.36; for U54G G57U G120A it is 0.132; for A18U G113C it is -3.57.
For the variant C11A C20U C73A A118U U133A, the “polymerase ribozyme fitness (log ratio)” value is -2.94.
With A18G C80U U92C G120U U129C U130A, the “polymerase ribozyme fitness (log ratio)” value is -6.4.
U9A G63U U96G G128A: the “polymerase ribozyme fitness (log ratio)” value was -2.96.
The figure for C34A G42A G61A G117C U131C is -7.25; for A16C C97U A100U it is -3.88.
Regarding C40G G61A C104A U106C, the “polymerase ribozyme fitness (log ratio)” value is -1.7.
As for U7G A43G G47U G61A U96A, the “polymerase ribozyme fitness (log ratio)” value is -2.6.
With A16G G71C C124A U130A, the “polymerase ribozyme fitness (log ratio)” value is 0.62.
As to C56U C86G A111U U129G, the “polymerase ribozyme fitness (log ratio)” value is -5.47.
On to U55C C62G, for which the “polymerase ribozyme fitness (log ratio)” value is -1.97.
The figure for G19A G44U G48C C49A C53A G69U C88G C104A G135C is -2.97; for G42U U78C it is -1.45; for A6U C70A it is -0.922.
Consider A2G C114A C124A, for which the “polymerase ribozyme fitness (log ratio)” value is -0.647.
Consider A16U U21G C114U, for which the “polymerase ribozyme fitness (log ratio)” value was -4.99.
The result for C89G G127A reads -1.9; that for A29U C49U C64U U106A C115A U132C, -2.46; that for C28G C73U, -2.15.
The result for A16G U106A reads -0.109; that for G39A C97A G120C, -6.66.
The figure for U9G U87A A100C is -0.443; for C62U G69C C102G U130G it is -7.34.
Consider C56A C88U G120U, for which the “polymerase ribozyme fitness (log ratio)” value is -0.86.
The figure for G17C C88U is -4.49.
A43C U55A C62U G93U U96G: the “polymerase ribozyme fitness (log ratio)” value is -4.79.
Turning to U78C A103G U109A C114A A119C, the “polymerase ribozyme fitness (log ratio)” value is -6.28.
Turning to C40U G45U G63U U78C, the “polymerase ribozyme fitness (log ratio)” value is -4.36.
The figure for C73U G117U is -1.43; for C3U G71U it is -0.48.
G57U G61C U78G C114U A118U: the “polymerase ribozyme fitness (log ratio)” value was -5.83.
The figure for A37C G45U G61C C123A is -3.45; for U33G U54G G58C A74G G120C it is -5.75.
In the case of C76A C99U G120U, the “polymerase ribozyme fitness (log ratio)” value is -5.6.
The figure for C49A G135U is -1.83.
The figure for G63A A91G U129A is -3.01; for A43U U92G C124U it is -0.53.
The figure for C12U A41C G60C G128C is -3.6; for G51U C62U U112G it is -5.35; for U9A U32C G36C it is -0.0123.
Consider C34G A43U G60C C82A A100U C114U U130C U132A U134C, for which the “polymerase ribozyme fitness (log ratio)” value is -5.7.
In the case of C20A C28G C94U A111G, the “polymerase ribozyme fitness (log ratio)” value is -7.69.
The figure for U109G C115A is -7.19.
The result for G36U G107C reads -5.19.
Consider G65U C124A, for which the “polymerase ribozyme fitness (log ratio)” value was -4.07.
Consider U7G C89A U116A G117A, for which the “polymerase ribozyme fitness (log ratio)” value was -2.89.
The result for A37U C72U reads -1.56.
Regarding G36U C56U C97A, the “polymerase ribozyme fitness (log ratio)” value is -0.495.
On to C97U G127A, for which the “polymerase ribozyme fitness (log ratio)” value was -1.48.
With C4U G69C, the “polymerase ribozyme fitness (log ratio)” value is -2.05.
In the case of G69C C70A A91C, the “polymerase ribozyme fitness (log ratio)” value was -7.25.
As for C34U C56A C114U, the “polymerase ribozyme fitness (log ratio)” value was -4.57.
On to U9A C11A C56A A95G U106A C123U, for which the “polymerase ribozyme fitness (log ratio)” value was 1.46.
In the case of C15A G45A C89G G93C, the “polymerase ribozyme fitness (log ratio)” value was -4.59.
The result for C40A G71A reads -2; that for C70A C97U, -2.23; that for G36U G44A U112A, -0.0288.
The result for G10A G69U G93A G110A A121U U132C reads 0.47; that for C53U C62A U78C, -1.46; that for A29C A37C C53A G110U, -5.11.
Regarding G58C C76G G77U, the “polymerase ribozyme fitness (log ratio)” value was -0.291.
Take C11G G42U C124U: the “polymerase ribozyme fitness (log ratio)” value was found to be 0.5.
The result for C12U C15U C49A C101U U133G reads -1.18; that for C102A U109A, -5.92; that for A27C C28U, -5.13.
Consider G58C C115G C123A G135A, for which the “polymerase ribozyme fitness (log ratio)” value is -3.89.
On to G77A U81A, for which the “polymerase ribozyme fitness (log ratio)” value was -1.01.
Take C22U C82A U87G: the “polymerase ribozyme fitness (log ratio)” value is -5.14.
The figure for C8A G10U U14G C56A C64U U78A C86A C101U is -2.72; for C86G U116A it is -4.49; for C64A G117C it is -6.03.
Regarding C40U G60C, the “polymerase ribozyme fitness (log ratio)” value was -0.857.
The figure for G42A C88A C98G G110C is -6.29.
The result for U7A C11A C101U G122U reads 0.139.
Regarding G39A U96C, the “polymerase ribozyme fitness (log ratio)” value is -0.886.
The result for C8A U38A G42U G45A reads -2.61.
As to U9C U78C A83U A90G A121G, the “polymerase ribozyme fitness (log ratio)” value was 2.5.
The result for C20A C28A G47C C97U G110C reads -6.66.
In the case of A18G G44A C72G, the “polymerase ribozyme fitness (log ratio)” value is -5.19.
Take U92A C115U: the “polymerase ribozyme fitness (log ratio)” value was -3.78.
For the variant G69A G135U, the “polymerase ribozyme fitness (log ratio)” value was -3.93.
Take A90G U92G G107U C114U G127U: the “polymerase ribozyme fitness (log ratio)” value is -5.63.
The result for G57U U59A C124A reads 1.82.
Turning to A2G U32C C40G C49A, the “polymerase ribozyme fitness (log ratio)” value was -1.76.
On to U7C U96C C102A A108U C114U, for which the “polymerase ribozyme fitness (log ratio)” value is -5.22.
Turning to G51A G117C, the “polymerase ribozyme fitness (log ratio)” value was -5.64.
The result for G57C U106A U112A reads 1.17; that for C11A G47C C72G, -3.64; that for U38G A41U, -2.98.
In the case of G25C C53U, the “polymerase ribozyme fitness (log ratio)” value was -5.22.
The figure for A43U A111G is -0.575; for A16C C22U G60C G93C A118U A121G it is -6.04.
The figure for A29G C40A C99G A111G is -7.69; for A2U C8U A41C C56G G77U G122A it is -2.93.
The result for U78G C94G reads -0.85; that for A29U G77C U112G G127C, -5.41; that for A18G A46G C72U, -4.38.
A6U A26U C70A G120U: the “polymerase ribozyme fitness (log ratio)” value was -5.12.
In the case of U38G C82G A95G, the “polymerase ribozyme fitness (log ratio)” value was -2.72.
As to G93U U96A, the “polymerase ribozyme fitness (log ratio)” value was -2.6.
As to G36C C49A C53A G61C C76U A119G, the “polymerase ribozyme fitness (log ratio)” value was -6.33.
Consider C20G C56A, for which the “polymerase ribozyme fitness (log ratio)” value is -4.28.
The result for A18C U87G C89U reads -2.03.
As for G10U C73G U92A C101U C104U, the “polymerase ribozyme fitness (log ratio)” value is -4.21.
The figure for A46U C53A A111U is -4.45.
In the case of G42A G63A, the “polymerase ribozyme fitness (log ratio)” value is -2.56.
The figure for C40U U54A is -0.773; for C22A G45A G63C C88U it is -5.31; for C8G C97G it is -3.25.
As for G35A C94G C123G U129C, the “polymerase ribozyme fitness (log ratio)” value is -5.78.
With C102U G120C, the “polymerase ribozyme fitness (log ratio)” value was -1.05.
The figure for C53A G69U A105U is -0.0597; for C34U A84U U131G it is -5.95.
As to C11U G52A A118G, the “polymerase ribozyme fitness (log ratio)” value was -0.222.
As to C79U A95C A118U, the “polymerase ribozyme fitness (log ratio)” value was -0.263.
The figure for G44U C70U C72U C79U G122A is -2.61; for U7G G51C C115U it is -5.78.
As for C53U U129A, the “polymerase ribozyme fitness (log ratio)” value is -1.24.
As for C11U U59C G93A, the “polymerase ribozyme fitness (log ratio)” value is -1.49.
The figure for G36U A50U A118U is -1.34; for U38A A50U C73G A121U it is -0.841; for C89G U106A it is -2.51.
The result for C20U A100U reads -2; that for A29G G42C, -2.66; that for C12A G61C, -2.46.
The figure for C72A C86U is -0.17; for C85A G128C it is -4.07.
For C4U A18U, the “polymerase ribozyme fitness (log ratio)” value is -2.35.
The figure for C13U G51C C85A C124G is -3.2.
The figure for C12U C98U is -0.736.
The result for A68G reads -2.44; that for A68C, -6.94.
In the case of A2G A46C, the “polymerase ribozyme fitness (log ratio)” value was -0.998.
In the case of C34U G47A C72U U78A C115A, the “polymerase ribozyme fitness (log ratio)” value was -6.19.
With C11A C94A U116A G120C, the “polymerase ribozyme fitness (log ratio)” value is -0.809.
With C3U C12U G110A, the “polymerase ribozyme fitness (log ratio)” value is -0.836.
The result for C99U C123A reads -3.32; that for U54A A108U, -4.71.
The result for C13U C53A C72A A103U G127U reads -5.25.
For the variant G44C C98U U126C, the “polymerase ribozyme fitness (log ratio)” value was -3.05.
With A105G G120C, the “polymerase ribozyme fitness (log ratio)” value is -1.97.
As to A18C A29G G107U C124G U125C, the “polymerase ribozyme fitness (log ratio)” value was -7.59.
The result for G69U C70G U92C G122A U125A reads -3.32; that for A6G C72A C79A C102U A118U, -2.3; that for C8U A43G G48U C101A, -3.37.
Regarding G10A U130C, the “polymerase ribozyme fitness (log ratio)” value is 0.4.
The figure for C40U A50U is -4.47; for C8G G63C G117C C124A it is -1.86.
The result for C11A C12A U14G A18C G63C C85U A103G U106A G107A A108C C114U G117C reads -6.98; that for C62A U132A, -0.682; that for C11A G60C C86U, -1.76.
C40U G110U G135C: the “polymerase ribozyme fitness (log ratio)” value is -2.95.
The result for C8A G122A reads 0.24; that for G36A C49A C56U, -0.697; that for C73G C80U C123G, -0.835.
The result for C72A C124U U131A reads 1.33; that for U14G A90C, -3.4.

The record behind these values is the RNAGym collection of RNA variant scans (doi:10.1073/pnas.2313332121).
